Where two headings read alike, the source gives them in different places.
Experiments:
[1] = target: T1, GST-hα2 I domain K78E (human, UniProt P08515 1-218 = GST); experiment: ELISA, GST fusion protein on immobilized TMC-2206 (Kd apparent)
T1 construct: same construct as m41
Procedure: (§1) The fusion proteins were then expressed and purified as described above for the human GST-α2 I domain fusion protein. […] Therefore, these and the primate fusion proteins were further purified by size exclusion chromatography on a Sephadex 75 10/30 (GE-Amersham) column (primate) by FPLC on an Akta-Basic FPLC system (GE-Amersham) to yield a monomeric fraction. […] The Kᵢ assays were performed as described above in Example 2. […] Plates were sealed and coating occurred overnight at 4° C. The next morning, the plates were washed twice with TBS solution and then blocked using 200 μL of the blocking solution described above for 1 hour at room temperature with shaking. After blocking, the blocking solution was removed but the wells were not washed. Instead, a serial dilution of GST fusion protein was made, added to the wells and then incubated for 2 hours at room temperature with shaking. The wells were then aspirated and a TBS washing buffer applied for 5 minutes at room temperature. The washing step was repeated twice more before the secondary antibody was applied. The secondary antibody step consisted of Amersham's HRP-conjugated rabbit anti-GST antibody diluted 1:2000 in blocking buffer. One hundred μL of secondary antibody was added to each well and incubated at room temperature for 1.5 hours with shaking. The wells were again aspirated and washed three times with wash buffer before adding the substrate reaction mixture. One hundred μL of substrate reaction mixture (1:1 dilution of TMB kit) was then added to each well for 6 minutes. The reaction was stopped by adding 100 μL of 0.1M H₂SO₄. The reaction within the wells was then read and quantified by spectrophotometric absorption using the Molecular Dynamics plate reader and associated Softmax software, respectively. Kd values were then estimated from the EC₅₀ values using Prism software (Graphpad, Calif.).

[2] = target: T2, GST-human α2 I domain fusion protein (human, UniProt P17301 153-368); experiment: as above
T2 construct: the reverse primer ends at ...SIEGTV; also called GST-α2 I domain; hα2I; not shown: glutathione S-transferase tag encoded by vector pGEX-2TK
T2 sequence: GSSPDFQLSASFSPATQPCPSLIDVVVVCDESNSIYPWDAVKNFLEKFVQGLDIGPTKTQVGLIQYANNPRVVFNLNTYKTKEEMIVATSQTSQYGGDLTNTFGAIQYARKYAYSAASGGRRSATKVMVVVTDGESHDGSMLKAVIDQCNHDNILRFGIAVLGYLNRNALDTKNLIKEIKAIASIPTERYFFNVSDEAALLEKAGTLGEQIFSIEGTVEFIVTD
Procedure: as §1

[3] = target: T3, human α2 integrin with endogenous hamster β1 on CHO cells (human; hamster); experiment: cell-based or functional assay
[4] = target: T3, human α2 integrin with endogenous …; experiment: cell-based or functional assay; remark: listed apart in the source
[5] = target: rat α2β1 integrin on rat blood cells (rat, UniProt A0A0G2K470 27-1178; P49134 21-798); experiment: cell-based or functional assay
[6] = target: T4, human platelet α2β1 integrin (immobilized on microtiter plates) (human, UniProt P17301 30-1181; P05556 21-798); experiment: competition with Eu-TMC-2206 on human platelet α2β1-coated plate
T4 construct: plates custom-coated with human platelet α2β1 by GTI Inc; also called immobilized α2β1 integrin; α2β1-coated plates

[7] = target: T4, human platelet α2β1 integrin …; experiment: as above; remark: listed apart in the source
[8] = target: T2, GST-human α2 I domain fusion protein; experiment: Eu-TMC-2206 on immobilized GST-α2 I domain at 37 °C, Scatchard
[9] = target: T2, GST-human α2 I domain fusion protein; experiment: ELISA, GST fusion protein on immobilized TMC-2206, Kd estimated from EC50
Procedure: as §1, with “One hundred μL of secondary antibody was added to each well and incubated at room temperature for 1.5 hours with shaking. The wells were again aspirated and washed three times with wash buffer before adding the substrate reaction mixture. One hundred μL of substrate reaction mixture (1:1 dilution of TMB kit) was then added to each well for 6 minutes. The reaction was stopped by adding 100 μL of 0.1M H₂SO₄.” left out, “Kd values were then estimated from the EC₅₀ values using Prism software (Graphpad, Calif.).” left out

[10] = target: T5, GST-rhesus α2 I domain fusion protein (rhesus monkey, UniProt P17301 153-368 (human entry)); experiment: as above
T5 construct: also called rhesus GST-α2 I; not shown: glutathione S-transferase tag encoded by vector pGEX-2TK
T5 sequence: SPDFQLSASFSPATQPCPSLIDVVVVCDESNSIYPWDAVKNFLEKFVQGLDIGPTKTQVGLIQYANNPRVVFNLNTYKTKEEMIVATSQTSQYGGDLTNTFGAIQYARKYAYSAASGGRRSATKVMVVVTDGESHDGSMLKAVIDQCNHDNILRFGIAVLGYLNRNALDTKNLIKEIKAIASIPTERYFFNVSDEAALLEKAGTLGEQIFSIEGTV
Procedure: as §1, with “One hundred μL of secondary antibody was added to each well and incubated at room temperature for 1.5 hours with shaking. The wells were again aspirated and washed three times with wash buffer before adding the substrate reaction mixture. One hundred μL of substrate reaction mixture (1:1 dilution of TMB kit) was then added to each well for 6 minutes. The reaction was stopped by adding 100 μL of 0.1M H₂SO₄.” left out, “Kd values were then estimated from the EC₅₀ values using Prism software (Graphpad, Calif.).” left out

[11] = target: T6, GST (UniProt P08515 1-218 = GST); experiment: ELISA, GST on immobilized TMC-2206
T6 construct: also called GST fusion protein (negative control)
T6 sequence (P08515 whole entry, the tested form may be a part): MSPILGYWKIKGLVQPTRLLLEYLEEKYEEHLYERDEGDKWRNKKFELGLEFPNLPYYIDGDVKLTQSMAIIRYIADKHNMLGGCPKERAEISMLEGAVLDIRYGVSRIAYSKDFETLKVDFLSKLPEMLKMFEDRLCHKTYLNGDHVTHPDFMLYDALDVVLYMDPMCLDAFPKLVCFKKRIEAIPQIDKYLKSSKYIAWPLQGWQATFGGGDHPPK

T3 sequence (P17301 30-1181 E534K): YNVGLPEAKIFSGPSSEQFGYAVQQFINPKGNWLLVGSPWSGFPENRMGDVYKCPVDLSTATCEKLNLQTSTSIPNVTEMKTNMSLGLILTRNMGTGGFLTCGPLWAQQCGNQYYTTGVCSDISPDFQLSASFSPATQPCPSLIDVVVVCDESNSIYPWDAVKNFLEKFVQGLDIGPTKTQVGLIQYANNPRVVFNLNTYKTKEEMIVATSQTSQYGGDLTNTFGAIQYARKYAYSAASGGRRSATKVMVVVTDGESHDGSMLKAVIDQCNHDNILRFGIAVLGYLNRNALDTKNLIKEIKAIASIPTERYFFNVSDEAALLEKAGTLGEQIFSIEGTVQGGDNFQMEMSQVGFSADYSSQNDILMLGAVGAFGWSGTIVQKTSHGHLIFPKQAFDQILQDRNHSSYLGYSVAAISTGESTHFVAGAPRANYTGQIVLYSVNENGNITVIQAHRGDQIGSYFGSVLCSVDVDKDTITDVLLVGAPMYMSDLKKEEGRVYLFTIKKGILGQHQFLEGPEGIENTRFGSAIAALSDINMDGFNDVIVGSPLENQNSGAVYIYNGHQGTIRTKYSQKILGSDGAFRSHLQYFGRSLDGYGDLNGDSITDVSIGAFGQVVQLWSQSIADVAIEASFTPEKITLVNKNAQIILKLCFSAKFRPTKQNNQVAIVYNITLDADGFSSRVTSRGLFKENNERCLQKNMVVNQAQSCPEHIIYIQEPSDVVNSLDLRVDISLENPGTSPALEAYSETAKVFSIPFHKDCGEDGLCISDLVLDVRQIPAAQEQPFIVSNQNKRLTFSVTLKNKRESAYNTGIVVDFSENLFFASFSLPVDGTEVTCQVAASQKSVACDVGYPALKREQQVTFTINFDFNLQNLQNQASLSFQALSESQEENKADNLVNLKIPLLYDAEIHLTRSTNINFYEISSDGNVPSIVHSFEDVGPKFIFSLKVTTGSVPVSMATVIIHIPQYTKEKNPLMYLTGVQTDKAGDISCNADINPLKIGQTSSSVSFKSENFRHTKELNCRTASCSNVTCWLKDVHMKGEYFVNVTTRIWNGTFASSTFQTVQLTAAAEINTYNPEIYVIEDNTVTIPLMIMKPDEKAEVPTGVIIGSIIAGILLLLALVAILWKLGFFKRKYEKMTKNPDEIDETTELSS
T4 sequence (P17301 30-1181 E534K limits assumed, chain 1 of 2): as the sequence (P17301 30-1181 E534K) above
T4 sequence (P05556 21-798 limits assumed, chain 2 of 2): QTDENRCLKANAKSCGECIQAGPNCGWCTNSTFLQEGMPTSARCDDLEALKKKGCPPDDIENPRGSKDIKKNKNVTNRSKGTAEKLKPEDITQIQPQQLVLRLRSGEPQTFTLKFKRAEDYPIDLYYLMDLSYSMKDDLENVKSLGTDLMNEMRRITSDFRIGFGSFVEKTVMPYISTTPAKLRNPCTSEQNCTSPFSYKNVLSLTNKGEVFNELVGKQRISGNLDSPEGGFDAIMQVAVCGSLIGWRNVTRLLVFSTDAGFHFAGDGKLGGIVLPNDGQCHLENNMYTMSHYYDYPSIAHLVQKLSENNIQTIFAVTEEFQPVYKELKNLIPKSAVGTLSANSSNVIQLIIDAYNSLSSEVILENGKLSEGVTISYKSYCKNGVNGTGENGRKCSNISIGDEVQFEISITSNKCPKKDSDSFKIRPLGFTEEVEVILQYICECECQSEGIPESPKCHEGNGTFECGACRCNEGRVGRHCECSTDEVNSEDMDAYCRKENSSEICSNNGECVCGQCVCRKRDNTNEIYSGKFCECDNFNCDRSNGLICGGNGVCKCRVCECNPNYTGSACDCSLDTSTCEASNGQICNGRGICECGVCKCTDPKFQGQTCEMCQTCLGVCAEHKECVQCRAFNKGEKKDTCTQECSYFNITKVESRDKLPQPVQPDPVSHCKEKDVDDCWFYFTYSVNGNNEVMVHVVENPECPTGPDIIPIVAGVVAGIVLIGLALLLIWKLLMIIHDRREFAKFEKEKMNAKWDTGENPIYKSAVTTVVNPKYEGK
rat α2β1 integrin on rat blood cells, sequence (chain, as listed by the source, chain 1 of 2): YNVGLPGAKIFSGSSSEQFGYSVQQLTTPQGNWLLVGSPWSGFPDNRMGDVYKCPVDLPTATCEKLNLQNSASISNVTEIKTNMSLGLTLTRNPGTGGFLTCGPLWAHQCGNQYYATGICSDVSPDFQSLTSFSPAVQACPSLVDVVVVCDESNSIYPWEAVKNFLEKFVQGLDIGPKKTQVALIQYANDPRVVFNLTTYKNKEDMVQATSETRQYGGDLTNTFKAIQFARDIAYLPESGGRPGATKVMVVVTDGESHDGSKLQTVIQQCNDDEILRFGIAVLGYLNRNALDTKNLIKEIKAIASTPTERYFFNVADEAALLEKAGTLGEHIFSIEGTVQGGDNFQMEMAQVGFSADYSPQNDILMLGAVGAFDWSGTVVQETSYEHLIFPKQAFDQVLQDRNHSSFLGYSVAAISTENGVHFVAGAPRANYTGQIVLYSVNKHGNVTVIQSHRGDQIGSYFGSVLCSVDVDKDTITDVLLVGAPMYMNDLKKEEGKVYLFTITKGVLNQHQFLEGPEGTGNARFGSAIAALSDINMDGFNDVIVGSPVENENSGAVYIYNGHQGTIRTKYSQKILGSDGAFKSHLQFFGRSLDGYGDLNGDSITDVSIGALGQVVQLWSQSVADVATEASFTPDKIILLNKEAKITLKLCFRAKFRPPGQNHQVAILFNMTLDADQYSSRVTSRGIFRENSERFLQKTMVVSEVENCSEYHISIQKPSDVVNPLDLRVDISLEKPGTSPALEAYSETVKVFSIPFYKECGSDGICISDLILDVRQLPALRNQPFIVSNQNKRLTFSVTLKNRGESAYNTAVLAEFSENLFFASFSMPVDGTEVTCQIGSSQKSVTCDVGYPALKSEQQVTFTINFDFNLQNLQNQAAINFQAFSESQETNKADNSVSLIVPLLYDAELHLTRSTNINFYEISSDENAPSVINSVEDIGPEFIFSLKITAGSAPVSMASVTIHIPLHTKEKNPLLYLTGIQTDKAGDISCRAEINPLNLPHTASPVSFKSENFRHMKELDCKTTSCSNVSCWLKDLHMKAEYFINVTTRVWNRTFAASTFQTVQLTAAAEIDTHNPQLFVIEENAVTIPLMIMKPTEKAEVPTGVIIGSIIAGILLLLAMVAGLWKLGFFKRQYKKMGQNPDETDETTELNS
rat α2β1 integrin on rat blood cells, sequence (P49134 21-798, chain 2 of 2): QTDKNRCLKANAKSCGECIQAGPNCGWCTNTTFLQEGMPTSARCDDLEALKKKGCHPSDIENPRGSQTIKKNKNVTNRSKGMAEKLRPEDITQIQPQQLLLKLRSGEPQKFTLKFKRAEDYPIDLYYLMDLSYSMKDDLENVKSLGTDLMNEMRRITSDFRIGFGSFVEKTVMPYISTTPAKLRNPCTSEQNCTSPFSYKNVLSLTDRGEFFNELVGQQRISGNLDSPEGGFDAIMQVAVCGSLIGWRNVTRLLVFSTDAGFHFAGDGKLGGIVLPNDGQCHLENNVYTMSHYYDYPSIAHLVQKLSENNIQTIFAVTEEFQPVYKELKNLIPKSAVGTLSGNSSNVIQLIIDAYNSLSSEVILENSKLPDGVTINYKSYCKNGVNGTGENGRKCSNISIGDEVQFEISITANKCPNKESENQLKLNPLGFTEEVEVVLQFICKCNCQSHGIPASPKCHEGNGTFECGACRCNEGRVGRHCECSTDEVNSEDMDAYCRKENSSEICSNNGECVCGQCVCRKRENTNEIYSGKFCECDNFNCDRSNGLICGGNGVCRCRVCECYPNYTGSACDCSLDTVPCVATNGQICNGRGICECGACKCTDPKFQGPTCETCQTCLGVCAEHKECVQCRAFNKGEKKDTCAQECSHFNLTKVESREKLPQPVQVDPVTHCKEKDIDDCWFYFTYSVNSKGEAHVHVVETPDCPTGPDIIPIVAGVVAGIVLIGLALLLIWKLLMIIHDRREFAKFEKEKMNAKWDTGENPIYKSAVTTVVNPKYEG

B1: TMC-2206 (antibody, mouse IgG1, V domains shown)
VH: QVQLKESGPGLVAPSQSLSITCTVSGFSLTNYGIHWVRQPPGKGLEWLGVIWARGFTNYNSALMSRLIITKDNSQSQVFLKMNSLQPDDSATYFCARANDGVYYAMDYWGQGTSVTVSS
VL: QFVLTQSPAFLSASPGEKVTMTCSANSSVNYIHWYQQKSGTSPKKWIYDTSKLASGVPVRFSGSGSGTSYSLTISSMETEDAATYYCQQWTTNPLTFGAGTRVELK
notes: murine IgG1/κ secreted by hybridoma BHA2.1; labelled with Eu-N1-ITC where used as tracer; also called BHA2.1
B1 was tested, and the Kd [1] was 0.16 nM, the Kd [2] was 0.31 nM and the “EC50 (nM), cell adhesion to collagen assay” value [3] was 1.03 nM. The “EC50, inhibition of adhesion of CHO-α2 cells to collagen Type I” value [4] was 1.2 nM, the “EC50, inhibition of cell adhesion to collagen” value [4] was 1.5 nM and the “EC50, inhibiting binding of rat platelets to rat collagen Type I” value [5] was 6.3 nM. For the same binder, the “fold shift, rat compared to human platelets” value [5] was about 5 fold, the Ki [6] was 0.28 nM and the Ki [7] was 0.22 nM. It also gave a Kd [8] of 0.2 nM, a Kd [9] of 0.18 nM and a Kd [10] of 0.04 nM. B1: no binding (tested: ~1 µM) [11].

From patent publication US20070128190A1 (GLENMARK PHARMACEUTICALS S A, published 2007)
